Measurements published in patent publication US20200002436A1 (DRAGONFLY THERAPEUTICS, published 2020).
Residue numbers refer to the chain shown, from its start.

T1: mouse recombinant NKG2D-Fc (mouse; human, UniProt O54709 90-232)
T1 construct: extracellular domain; also called recombinant mouse NKG2D-Fc; Mouse NKG2D-Fc-biotin; not shown: human IgG1 Fc domain
T1 sequence (looked up): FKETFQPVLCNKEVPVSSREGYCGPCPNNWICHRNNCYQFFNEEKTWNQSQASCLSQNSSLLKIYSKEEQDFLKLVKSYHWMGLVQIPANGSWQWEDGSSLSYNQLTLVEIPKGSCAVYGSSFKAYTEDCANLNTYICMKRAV

T2: human recombinant NKG2D-Fc (human, UniProt P26718 73-216)
T2 construct: extracellular domain; also called recombinant human NKG2D-Fc; NKG2D-Fc fusion protein; not shown: human IgG1 Fc domain
T2 sequence (looked up): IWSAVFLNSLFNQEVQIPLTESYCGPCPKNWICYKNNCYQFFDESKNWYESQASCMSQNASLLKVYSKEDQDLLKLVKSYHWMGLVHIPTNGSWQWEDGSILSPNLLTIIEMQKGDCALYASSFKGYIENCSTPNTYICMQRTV

T3: cynomolgus recombinant NKG2D-Fc (cynomolgus; human, UniProt P61252 73-216)
T3 construct: extracellular domain; also called cynomolgus NKG2D-Fc; not shown: human IgG1 Fc domain
T3 sequence (looked up): T2 sequence (looked up) with D43N, T133I

B1: ADI-29443 (antibody, V domains shown)
VH: QLQLQESGPGLVKPSETLSLTCTVSGGSISSSSYYWGWIRQPPGKGLEWIGSIYYSGSTYYNPSLKSRVTISVDTSKNQFSLKLSSVTAADTAVYYCARGSDRFHPYFDYWGQGTLVTVSS
VL: EIVLTQSPATLSLSPGERATLSCRASQSVSRYLAWYQQKPGQAPRLLIYDASNRATGIPARFSGSGSGTDFTLTISSLEPEDFAVYYCQQFDTWPPTFGGGTKVEIK
notes: also called F43
B2: ADI-27705 (antibody, V domains shown)
VH: QVQLQQWGAGLLKPSETLSLTCAVYGGSFSGYYWSWIRQPPGKGLEWIGEIDHSGSTNYNPSLKSRVTISVDTSKNQFSLKLSSVTAADTAVYYCARARGPWSFDPWGQGTLVTVSS
VL: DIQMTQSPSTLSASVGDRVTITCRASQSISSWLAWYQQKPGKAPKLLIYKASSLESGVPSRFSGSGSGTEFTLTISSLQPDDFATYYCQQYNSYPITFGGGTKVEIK
B3: ADI-29403 (antibody, V domains shown)
VH: B2 VH
VL: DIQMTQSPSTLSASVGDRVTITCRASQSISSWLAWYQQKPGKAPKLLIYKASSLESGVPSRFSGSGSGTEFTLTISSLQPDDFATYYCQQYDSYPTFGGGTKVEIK
B4: ADI-27724 (antibody, V domains shown)
VH: B2 VH
VL: not shown
B5: ADI-29421 (antibody, V domains shown)
VH: B2 VH
VL: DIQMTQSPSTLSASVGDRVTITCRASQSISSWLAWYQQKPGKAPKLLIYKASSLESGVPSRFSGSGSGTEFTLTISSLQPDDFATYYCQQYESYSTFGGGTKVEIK
B6: ADI-27743 (antibody, V domains shown)
VH: B2 VH
VL: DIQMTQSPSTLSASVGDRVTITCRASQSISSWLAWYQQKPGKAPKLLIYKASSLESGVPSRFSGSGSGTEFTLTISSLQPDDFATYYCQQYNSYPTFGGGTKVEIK
B7: ADI-29404 (antibody, V domains shown)
VH: B2 VH
VL: DIQMTQSPSTLSASVGDRVTITCRASQSISSWLAWYQQKPGKAPKLLIYKASSLESGVPSRFSGSGSGTEFTLTISSLQPDDFATYYCEQYDSYPTFGGGTKVEIK
notes: also called F04
B8: ADI-28226 (antibody, V domains shown)
VH: B2 VH
VL: DIQMTQSPSTLSASVGDRVTITCRASQSISSWLAWYQQKPGKAPKLLIYKASSLESGVPSRFSGSGSGTEFTLTISSLQPDDFATYYCQQYGSFPITFGGGTKVEIK
notes: also called C26
B9: ADI-29401 (antibody, V domains shown)
VH: B2 VH
VL: B7 VL with S30G, E89Q, S93I
B10: ADI-29419 (antibody, V domains shown)
VH: B2 VH
VL: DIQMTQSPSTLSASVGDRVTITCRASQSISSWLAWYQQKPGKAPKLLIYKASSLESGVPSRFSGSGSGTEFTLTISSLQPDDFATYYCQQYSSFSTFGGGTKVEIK
B11: ADI-29426 (antibody, V domains shown)
VH: B2 VH
VL: B7 VL with S30G, E89Q, D92H, Y94F
B12: ADI-27740 (antibody, V domains shown)
VH: B2 VH
VL: B7 VL with S30G, E89Q, D92H, Y94F, P95Y
notes: also called A40
B13: ADI-29447 (antibody, V domains shown)
VH: B2 VH
VL: B7 VL with E89Q, S93T, Y94F, P95I
notes: also called F47
B14: ADI-29425 (antibody, V domains shown)
VH: B2 VH
VL: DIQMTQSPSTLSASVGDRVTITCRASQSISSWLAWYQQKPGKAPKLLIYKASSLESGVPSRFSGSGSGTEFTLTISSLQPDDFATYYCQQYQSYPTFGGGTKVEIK
B15: ADI-29424 (antibody, V domains shown)
VH: B2 VH
VL: B7 VL with E89Q, Y94F, P95I
B16: ADI-29405 (antibody, V domains shown)
VH: B2 VH
VL: B7 VL with E89Q, D92G, Y94F
B17: ADI-27741 (antibody, V domains shown)
VH: B2 VH
VL: B7 VL with S30G, E89Q, Y91S, D92N, P95Y
B18: ADI-29399 (antibody, V domains shown)
VH: B2 VH
VL: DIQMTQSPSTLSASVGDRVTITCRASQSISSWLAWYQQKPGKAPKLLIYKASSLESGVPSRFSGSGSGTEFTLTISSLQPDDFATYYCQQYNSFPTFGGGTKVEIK
B19: ADI-29429 (antibody, V domains shown)
VH: B2 VH
VL: B8 VL with S30G, G92E, S93L, F94Y, P95S, I96Y
B20: ADI-29407 (antibody, V domains shown)
VH: B2 VH
VL: B7 VL with E89Q, D92Q, Y94F
B21: ADI-27727 (antibody, V domains shown)
VH: QVQLVQSGAEVKKPGSSVKVSCKASGGTFSSYAISWVRQAPGQGLEWMGGIIPIFGTANYAQKFQGRVTITADESTSTAYMELSSLRSEDTAVYYCARGDSSIRHAYYYYGMDVWGQGTTVTVSS
VL: not shown

The binders below were run against T1, mouse recombinant NKG2D-Fc (assay: ELISA on coated NKG2D-Fc;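 note: titrated NKG2D binders added to plates coated with human, mouse or cynomolgus NKG2D ectodomain–human IgG1 Fc fusions, detected by HRP anti-human kappa antibody with TMB, absorbance at 450 nm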).
Description: (§1) The nucleic acid sequences of human, mouse or cynomolgus NKG2D ectodomains were fused with nucleic acid sequences encoding human IgG1 Fc domains and introduced into mammalian cells to be expressed. After purification, NKG2D-Fc fusion proteins were adsorbed to wells of microplates. After blocking the wells with bovine serum albumin to prevent non-specific binding, NKG2D-binding domains were titrated and added to the wells pre-adsorbed with NKG2D-Fc fusion proteins. Primary antibody binding was detected using a secondary antibody which was conjugated to horseradish peroxidase and specifically recognizes a human kappa light chain to avoid Fc cross-reactivity. 3,3′,5,5′-Tetramethylbenzidine (TMB), a substrate for horseradish peroxidase, was added to the wells to visualize the binding signal, whose absorbance was measured at 450 nm and corrected at 540 nM.

| binding result | Binder |
| --- | --- |
| binds | B1 |
| binds | B2 |
| binds | B3 |
| binds | B4 |
| binds | B5 |
| binds | B6 |
| binds | B7 |
| binds | B8 |
| binds | B9 |
| binds | B10 |
| binds | B11 |
| binds | B12 |
| binds | B13 |
| binds | B14 |
| binds | B15 |
| binds | B16 |
| binds | B17 |
| binds | B18 |
| binds | B19 |
| binds | B20 |
| binds | B21 |

Each binder was assayed against T2, human recombinant NKG2D-Fc (assay: ELISA on coated NKG2D-Fc;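 note: titrated NKG2D binders added to plates coated with human, mouse or cynomolgus NKG2D ectodomain–human IgG1 Fc fusions, detected by HRP anti-human kappa antibody with TMB, absorbance at 450 nm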).
Description: as §1

| binding result | Binder |
| --- | --- |
| binds | B1 |
| binds | B2 |
| binds | B3 |
| binds | B4 |
| binds | B5 |
| binds | B6 |
| binds | B7 |
| binds | B8 |
| binds | B9 |
| binds | B10 |
| binds | B11 |
| binds | B12 |
| binds | B13 |
| binds | B14 |
| binds | B15 |
| binds | B16 |
| binds | B17 |
| binds | B18 |
| binds | B19 |
| binds | B20 |
| binds | B21 |

These binders were tested against T3, cynomolgus recombinant NKG2D-Fc (assay: ELISA on coated NKG2D-Fc;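 note: titrated NKG2D binders added to plates coated with human, mouse or cynomolgus NKG2D ectodomain–human IgG1 Fc fusions, detected by HRP anti-human kappa antibody with TMB, absorbance at 450 nm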).
Description: as §1

| binding result | Binder |
| --- | --- |
| binds | B2 |
| binds | B3 |
| binds | B4 |
| binds | B5 |
| binds | B6 |
| binds | B7 |
| binds | B8 |
| binds | B9 |
| binds | B10 |
| binds | B11 |
| binds | B12 |
| binds | B13 |
| binds | B14 |
| binds | B15 |
| binds | B16 |
| binds | B17 |
| binds | B18 |
| binds | B19 |
| binds | B20 |
| binds | B21 |
